How the values were obtained:
[1] = target: T1, Feline FcRn (complex of FcRn-α subunit and β-microglobulin, C-terminal His tag) (feline, UniProt A0ABI7ZNY9 23-296; Q5MGS7 21-118); test: SPR Biacore, biotin-FcRn on SA chip, pH 6; pH 6
T1 construct: treated here as one molecule
Description: Feline FcRn was isolated, prepared and mutant Fc IgGs were assayed against feline FcRn according to Strietzel et. al., discussed above. Standard PCR was used to amplify feline FcRn-α subunit and β-microglobulin. FcRn-α subunit and β-microglobulin were co-transfected into HEK 293 cells and the FcRn complex was purified by IMAC affinity purification via the c-terminal His tag. FcRn complex was biotin labeled through BirA enzymatic biotinylatoin reaction. KD's were measured by Biacore T200 (GE Healthcare, Pittsburgh, PA, USA) or Biacore 8K (Cytiva, Marlborough, MA, USA) using a SA sensor chip.
FcRn was captured on the surface of the sensor using a modified SA capture method. 10 mM MES; 150 mM NaCl; 0.005% Tween20; 0.5 mg/mL BSA; pH6 was used as capture, method running buffer and titrations. 1×HBS-P, 0.5 mg/mL BSA; pH7.4 was also used for method running buffer and titrations. Fc mutant IgGs were flowed over receptor surfaces and affinity was determined using T200 evaluation software or Biacore Insight Evaluation software. Blank runs containing buffer only were subtracted out from all runs. Flow cells were regenerated using 50 mM Tris pH8 or pH9. Runs were performed at 15° C.

[2] = target: NGF (target of felinized anti-NGF antibodies mAb2 and mAb3); test: cell-based or functional assay
[3] = target: NGF (target of felinized anti-NGF antibodies mAb2 and mAb3); test: SPR Biacore T200, target amine-coupled, 15 C
[4] = target: Feline FcRn (complex of FcRn-α subunit and β-microglobulin, C-terminal His tag) (feline); test: SPR Biacore, FcRn amine-coupled on CM5, pH 6
Feline FcRn (complex of FcRn-α subunit and β-microglobulin, C-terminal His tag) (feline), sequence (chain, as listed by the source, chain 1 of 2): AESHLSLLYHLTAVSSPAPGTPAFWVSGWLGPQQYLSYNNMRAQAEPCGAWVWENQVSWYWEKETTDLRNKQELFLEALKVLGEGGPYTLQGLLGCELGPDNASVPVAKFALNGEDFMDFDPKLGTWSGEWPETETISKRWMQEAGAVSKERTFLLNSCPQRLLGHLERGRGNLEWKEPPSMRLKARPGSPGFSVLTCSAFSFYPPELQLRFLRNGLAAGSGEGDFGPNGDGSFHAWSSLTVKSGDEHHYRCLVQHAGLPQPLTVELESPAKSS
Feline FcRn (complex of FcRn-α subunit and β-microglobulin, C-terminal His tag) (feline), sequence (Q5MGS7 21-118, chain 2 of 2): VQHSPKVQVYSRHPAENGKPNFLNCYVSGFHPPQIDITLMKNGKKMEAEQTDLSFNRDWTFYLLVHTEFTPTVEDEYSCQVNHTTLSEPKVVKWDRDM

[5] = target: Feline FcRn (complex of FcRn-α subunit and β-microglobulin, C-terminal His tag) (feline); test: SPR Biacore, FcRn amine-coupled on CM5, pH 7.2
[6] = target: IL31 (target of felinized anti-IL31 antibody mAb1); test: SPR Biacore T200, target amine-coupled, 15 C

Row | Binder | Kd [1] | IC50 (cell based potency assay) [2] | Kd [3] | Kd [4] | Kd [5] | Kd [6]
1 | mAb1 (felinized anti-IL31 antibody) wild-type, feline IgG1a (antibody, part only; not given: Anti-IL31 heavy and light variable domains, part only) heavy, part: ASTTAPSVFPLAPSCGTTSGATVALACLVLGYFPEPVTVSWNSGALTSGVHTFPAVLQASGLYSLSSMVTVPSSRWLSDTFTCNVAHPPSNTKVDKTVRKTDHPPGPKPCDCPKCPPPEMLGGPSIFIFPPKPKDTLSISRTPEVTCLVVDLGPDDSDVQITWFVDNTQVYTAKTSPREEQFNSTYRVVSVLPILHQDWLKGKEFKCKVNSKSLPSPIERTISKAKGQPHEPQVYVLPPAQEELSRNKVSVTCLIKSFHPPDIAVEWEITGQPEPENNYRTTPPQLDSDGTYFVYSKLSVDRSHWQRGNTYTCSVSHEALHSHHTQKSLTQSPGK |  |  |  | 12.1 nM |  | 0.0223 nM
2 | mAb1 (felinized anti-IL31 antibody) S428L, feline IgG1a (antibody, part only; not given: Anti-IL31 heavy and light variable domains, part only) heavy, part: ASTTAPSVFPLAPSCGTTSGATVALACLVLGYFPEPVTVSWNSGALTSGVHTFPAVLQASGLYSLSSMVTVPSSRWLSDTFTCNVAHPPSNTKVDKTVRKTDHPPGPKPCDCPKCPPPEMLGGPSIFIFPPKPKDTLSISRTPEVTCLVVDLGPDDSDVQITWFVDNTQVYTAKTSPREEQFNSTYRVVSVLPILHQDWLKGKEFKCKVNSKSLPSPIERTISKAKGQPHEPQVYVLPPAQEELSRNKVSVTCLIKSFHPPDIAVEWEITGQPEPENNYRTTPPQLDSDGTYFVYSKLSVDRSHWQRGNTYTCSVLHEALHSHHTQKSLTQSPGK |  |  |  | 3.77 nM | 180 nM | 0.0228 nM

More lines, now with the values ahead:

Row | Kd [1] | IC50 (cell based potency assay) [2] | Kd [3] | Kd [4] | Kd [5] | Kd [6] | Binder
3 | 15.5 nM |  |  |  |  |  | mAb4 (felinized anti-IL31 antibody ZTS-5864) S428L, feline IgG1a (antibody, also called mAb4 ID No. 11) heavy: DVQLVESGGDLVKPGGSLRLTCVASGFTFSDYAMSWVRQAPGKGLQWVAGIDSVGSGTSYADSVKGRFTISRDNAKNTLYLQMNSLKTEDTATYYCASGFPGSFEHWGQGTLVTVSSASTTAPSVFPLAPSCGTTSGATVALACLVLGYFPEPVTVSWNSGALTSGVHTFPAVLQASGLYSLSSMVTVPSSRWLSDTFTCNVAHPPSNTKVDKTVRKTDHPPGPKPCDCPKCPPPEMLGGPSIFIFPPKPKDTLSISRTPEVTCLVVDLGPDDSDVQITWFVDNTQVYTAKTSPREEQFNSTYRVVSVLPILHQDWLKGKEFKCKVNSKSLPSPIERTISKAKGQPHEPQVYVLPPAQEELSRNKVSVTCLIKSFHPPDIAVEWEITGQPEPENNYRTTPPQLDSDGTYFVYSKLSVDRSHWQRGNTYTCSVLHEALHSHHTQKSLTQSPGK VL: QSVLTQPSSVSGTLGQRITISCTGSSSNIGSGYVGWYQQVPGMGPKTVIYYNSDRPSGVPDRFSGSKSGSSGTLTITGLQAEDEADYYCSVYDRTFNAVFGGGT
4 | 4.88 nM |  |  |  |  |  | mAb4 (felinized anti-IL31 antibody ZTS-5864) S434H, feline IgG1a (antibody, also called mAb4 ID No. 00) heavy: DVQLVESGGDLVKPGGSLRLTCVASGFTFSDYAMSWVRQAPGKGLQWVAGIDSVGSGTSYADSVKGRFTISRDNAKNTLYLQMNSLKTEDTATYYCASGFPGSFEHWGQGTLVTVSSASTTAPSVFPLAPSCGTTSGATVALACLVLGYFPEPVTVSWNSGALTSGVHTFPAVLQASGLYSLSSMVTVPSSRWLSDTFTCNVAHPPSNTKVDKTVRKTDHPPGPKPCDCPKCPPPEMLGGPSIFIFPPKPKDTLSISRTPEVTCLVVDLGPDDSDVQITWFVDNTQVYTAKTSPREEQFNSTYRVVSVLPILHQDWLKGKEFKCKVNSKSLPSPIERTISKAKGQPHEPQVYVLPPAQEELSRNKVSVTCLIKSFHPPDIAVEWEITGQPEPENNYRTTPPQLDSDGTYFVYSKLSVDRSHWQRGNTYTCSVSHEALHHHHTQKSLTQSPGK VL: QSVLTQPSSVSGTLGQRITISCTGSSSNIGSGYVGWYQQVPGMGPKTVIYYNSDRPSGVPDRFSGSKSGSSGTLTITGLQAEDEADYYCSVYDRTFNAVFGGGT
5 |  | 0.69 nM | 0.023 nM | 25 nM | 380 nM |  | mAb2 (felinized anti-NGF antibody) wild-type, feline IgG1a (antibody, part only; not given: Anti-NGF heavy and light variable domains, part only) heavy, part: ASTTAPSVFPLAPSCGTTSGATVALACLVLGYFPEPVTVSWNSGALTSGVHTFPAVLQASGLYSLSSMVTVPSSRWLSDTFTCNVAHPPSNTKVDKTVRKTDHPPGPKPCDCPKCPPPEMLGGPSIFIFPPKPKDTLSISRTPEVTCLVVDLGPDDSDVQITWFVDNTQVYTAKTSPREEQFNSTYRVVSVLPILHQDWLKGKEFKCKVNSKSLPSPIERTISKAKGQPHEPQVYVLPPAQEELSRNKVSVTCLIKSFHPPDIAVEWEITGQPEPENNYRTTPPQLDSDGTYFVYSKLSVDRSHWQRGNTYTCSVSHEALHSHHTQKSLTQSPGK
